Assay results as given in PMC3253074, “βB1-Crystallin: Thermodynamic Profiles of Molecular Interactions” (PLoS ONE, 2012).

B1: murine βB1-crystallin, wild type recombinant (natural protein, UniProt Q9WVJ5 1-250, looked up)
chain: MSQAAKASATTAVNPGPDGKGKGAPSTGPAPAPGPTPVPASVPRPAAKVGDLPPGSYRLIVFEQENFQGRRVEFSGECLNLGDRGFDRVRSLIVVSGPWVAFEQSAFRGEMFVLEKGEYPRWDTWTSSYRSDRLMSFRPIRMDSQEHKICLFEGANFKGNTMEIQEDDVPSLWVYGFCDRVGSITVSGGTWVGYQYPGYRGYQYLLEPGDFRHWNEWGAFQPQMQAVRRLRDRQWHQEGCFPVLTAEPPK
notes: βB1-crystallin, mouse, wild type recombinant; monomer printed as 28 kDa; source: E. coli, purified (ion-exchange and size-exclusion chromatography)

Legend:
[1] = target: B1; assay: SEC; equimolar mixture (~20 µM each) incubated 24 h, Superdex 75 HR10/30, Buffer A (50 mM Tris-HCl, 1 mM EDTA, 0.15 M NaCl, 1 mM TCEP, pH 7.5), 0.5 ml/min; settings: both partners purified
[2] = target: the molecule itself; assay: AUC; sedimentation equilibrium at 5°C increments over 5-30°C, 0.5 mg/ml, Buffer A pH 7.5; enthalpy from van't Hoff plots of ln(Kd/Co) against 1/T; dimer to monomers (βB1, βA3), heterotetramer to heterodimers (βB1/βA3)
[3] = target: the molecule itself; assay: as above; remark: listed apart in the source
[4] = target: the molecule itself; assay: AUC; sedimentation equilibrium, 18,500 rpm, 5 °C, Buffer A (50 mM Tris-HCl, 1 mM EDTA, 0.15 M NaCl, 1 mM TCEP, pH 7.5), 0.5 mg/ml; dimer to monomers
[5] = target: the molecule itself; assay: AUC; sedimentation equilibrium, 18,500 rpm, 25 °C, Buffer A (50 mM Tris-HCl, 1 mM EDTA, 0.15 M NaCl, 1 mM TCEP, pH 7.5), 0.5 mg/ml; dimer to monomers
[6] = target: the molecule itself; assay: AUC; sedimentation equilibrium, 18,500 rpm, 20 °C, Buffer A (50 mM Tris-HCl, 1 mM EDTA, 0.15 M NaCl, 1 mM TCEP, pH 7.5), 0.5 mg/ml; dimer to monomers
[7] = target: the molecule itself; assay: AUC; sedimentation equilibrium, 18,500 rpm, 15 °C, Buffer A (50 mM Tris-HCl, 1 mM EDTA, 0.15 M NaCl, 1 mM TCEP, pH 7.5), 0.5 mg/ml; dimer to monomers
[8] = target: the molecule itself; assay: AUC; sedimentation equilibrium, 18,500 rpm, 30 °C, Buffer A (50 mM Tris-HCl, 1 mM EDTA, 0.15 M NaCl, 1 mM TCEP, pH 7.5), 0.5 mg/ml; dimer to monomers
[9] = target: the molecule itself; assay: AUC; sedimentation equilibrium, 18,500 rpm, 10 °C, Buffer A (50 mM Tris-HCl, 1 mM EDTA, 0.15 M NaCl, 1 mM TCEP, pH 7.5), 0.5 mg/ml; dimer to monomers
[10] = target: the molecule itself; assay: AUC; sedimentation equilibrium of the equimolar βB1/βA3 mixture, 18,500 rpm, 25 °C, Buffer A pH 7.5, 0.5 mg/ml; heterotetramer to heterodimers
[11] = target: the molecule itself; assay: AUC; sedimentation equilibrium of the equimolar βB1/βA3 mixture, 18,500 rpm, 15 °C, Buffer A pH 7.5, 0.5 mg/ml; heterotetramer to heterodimers
[12] = target: the molecule itself; assay: AUC; sedimentation equilibrium of the equimolar βB1/βA3 mixture, 18,500 rpm, 30 °C, Buffer A pH 7.5, 0.5 mg/ml; heterotetramer to heterodimers
[13] = target: the molecule itself; assay: AUC; sedimentation equilibrium of the equimolar βB1/βA3 mixture, 18,500 rpm, 10 °C, Buffer A pH 7.5, 0.5 mg/ml; heterotetramer to heterodimers
[14] = target: the molecule itself; assay: AUC; sedimentation equilibrium of the equimolar βB1/βA3 mixture, 18,500 rpm, 5 °C, Buffer A pH 7.5, 0.5 mg/ml; heterotetramer to heterodimers
[15] = target: the molecule itself; assay: AUC; sedimentation equilibrium of the equimolar βB1/βA3 mixture, 18,500 rpm, 16 h, 20°C, Buffer A pH 7.5; heterotetramer to heterodimers

Binder	stoichiometry N [2]	dH (van't Hoff, ΔCp = 0) [3] [kcal/mol]	dH (van't Hoff, ΔCp nonzero) [3] [kcal/mol]	Kd [4] [µM]	Kd [5] [µM]	Kd [6] [µM]	Kd [7] [µM]	Kd [8] [µM]	Kd [9] [µM]	other results
human βA3-crystallin, wild type recombinant (natural protein, UniProt P05813 1-215, looked up, βA3-crystallin, human, wild type recombinant; monomer printed as 25 kDa; source: E. coli, purified (ion-exchange and size-exclusion chromatography)) METQAEQQELETLPTTKMAQTNPTPGSLGPWKITIYDQENFQGKRMEFTSSCPNVSERSFDNVRSLKVESGAWIGYEHTSFCGQQFILERGEYPRWDAWSGSNAYHIERLMSFRPICSANHKESKMTIFEKENFIGRQWEISDDYPSLQAMGWFNNEVGSMKIQSGAWVCYQYPGYRGYQYILECDHHGGDYKHWREWGSHAQTSQIQSIRRIQQ	2	8 ± 3	7.2 ± 2.5	–	–	–	–	–	–	binding result [1]: binds
human βA3-crystallin (natural protein, UniProt P05813 1-215, looked up, βA3-crystallin, human, wild type recombinant; monomer 25 kDa as printed; source: E. coli, purified (ion-exchange and size-exclusion chromatography)) METQAEQQELETLPTTKMAQTNPTPGSLGPWKITIYDQENFQGKRMEFTSSCPNVSERSFDNVRSLKVESGAWIGYEHTSFCGQQFILERGEYPRWDAWSGSNAYHIERLMSFRPICSANHKESKMTIFEKENFIGRQWEISDDYPSLQAMGWFNNEVGSMKIQSGAWVCYQYPGYRGYQYILECDHHGGDYKHWREWGSHAQTSQIQSIRRIQQ	–	–	–	11.8	1.62	5.21	5.32	2.07	6.47	–
βB1/βA3 heterodimer (murine βB1 with human βA3) (complex, murine | human, βB1-crystallin, mouse, wild type recombinant; as the chain of Wm1; βA3-crystallin, human, wild type recombinant; as the chain of Wm2; also called βB1/βA3 complex; source: equimolar mixture (~20 µM each) of βB1 and βA3 purified from E. coli, incubated at room temperature for 24 h) chain 1: MSQAAKASATTAVNPGPDGKGKGAPSTGPAPAPGPTPVPASVPRPAAKVGDLPPGSYRLIVFEQENFQGRRVEFSGECLNLGDRGFDRVRSLIVVSGPWVAFEQSAFRGEMFVLEKGEYPRWDTWTSSYRSDRLMSFRPIRMDSQEHKICLFEGANFKGNTMEIQEDDVPSLWVYGFCDRVGSITVSGGTWVGYQYPGYRGYQYLLEPGDFRHWNEWGAFQPQMQAVRRLRDRQWHQEGCFPVLTAEPPK chain 2: METQAEQQELETLPTTKMAQTNPTPGSLGPWKITIYDQENFQGKRMEFTSSCPNVSERSFDNVRSLKVESGAWIGYEHTSFCGQQFILERGEYPRWDAWSGSNAYHIERLMSFRPICSANHKESKMTIFEKENFIGRQWEISDDYPSLQAMGWFNNEVGSMKIQSGAWVCYQYPGYRGYQYILECDHHGGDYKHWREWGSHAQTSQIQSIRRIQQ	–	–	–	–	–	–	–	–	–	Kd [10]: 12.8 µM; Kd [11]: 1.14 µM; Kd [12]: 22.1 µM; Kd [13]: 0.54 µM; Kd [14]: 1.21 µM
βB1/βA3 heterodimer (murine βB1 with human βA3), the unit of the heterodimer-heterotetramer equilibrium (complex, murine | human, βB1-crystallin, mouse, wild type recombinant, as m1; βA3-crystallin, human, wild type recombinant, as m2; The heterodimer is the unit of the best-fit model; also called βB1/βA3 complex; [βB1/βA3]4 (the tetramer); source: equimolar mixture (~20 µM each) of the purified E. coli proteins, incubated 24 h) chain 1: MSQAAKASATTAVNPGPDGKGKGAPSTGPAPAPGPTPVPASVPRPAAKVGDLPPGSYRLIVFEQENFQGRRVEFSGECLNLGDRGFDRVRSLIVVSGPWVAFEQSAFRGEMFVLEKGEYPRWDTWTSSYRSDRLMSFRPIRMDSQEHKICLFEGANFKGNTMEIQEDDVPSLWVYGFCDRVGSITVSGGTWVGYQYPGYRGYQYLLEPGDFRHWNEWGAFQPQMQAVRRLRDRQWHQEGCFPVLTAEPPK chain 2: METQAEQQELETLPTTKMAQTNPTPGSLGPWKITIYDQENFQGKRMEFTSSCPNVSERSFDNVRSLKVESGAWIGYEHTSFCGQQFILERGEYPRWDAWSGSNAYHIERLMSFRPICSANHKESKMTIFEKENFIGRQWEISDDYPSLQAMGWFNNEVGSMKIQSGAWVCYQYPGYRGYQYILECDHHGGDYKHWREWGSHAQTSQIQSIRRIQQ	–	-24.5 ± 6.2	-29.6 ± 8.1	–	–	–	–	–	–	Kd [15]: 8.78 µM
B1	2	-13.3 ± 5.6	-21.2 ± 4.6	–	–	–	–	–	–	–
murine βB1-crystallin (natural protein, UniProt Q9WVJ5 1-250, looked up, βB1-crystallin, mouse, wild type recombinant; monomer 28 kDa as printed; source: E. coli, purified (ion-exchange and size-exclusion chromatography)) MSQAAKASATTAVNPGPDGKGKGAPSTGPAPAPGPTPVPASVPRPAAKVGDLPPGSYRLIVFEQENFQGRRVEFSGECLNLGDRGFDRVRSLIVVSGPWVAFEQSAFRGEMFVLEKGEYPRWDTWTSSYRSDRLMSFRPIRMDSQEHKICLFEGANFKGNTMEIQEDDVPSLWVYGFCDRVGSITVSGGTWVGYQYPGYRGYQYLLEPGDFRHWNEWGAFQPQMQAVRRLRDRQWHQEGCFPVLTAEPPK	–	–	–	3.99	12.6	4.71	1.91	17.6	1.64	–
